The conditions of the series: Aspergillus oryzae (strain ATCC 42149 / RIB 40), 0 °C, Urea, CD, reversible: yes, whole UniProt chain shown.

B1: Guanyl-specific ribonuclease T1 wild type, P00651 (protein)
chain: MMYSKLLTLTTLLLPTALALPSLVERACDYTCGSNCYSSSDVSTAQAAGYQLHEDGETVGSNSYPHKYNNYEGFDFSVSSPYYEWPILSSGDVYSGGSPGADRVVFNENNQLAGVITHTGASGNNFVECT
Take B1: where the note is “pH 2.5, glycine 30 mM”, the denaturant m value was 1.58 kcal/mol/M and the “denaturant midpoint (higher = more stable)” value turned out to be 2.78 M. Where the note is “pH 7, MOPS 30 mM”, the denaturant m value amounted to 1.28 kcal/mol/M and the “denaturant midpoint (higher = more stable)” value was determined as 4.32 M.

(Values after FireProtDB (doi:10.1021/bi9707180).)
